In US20240124607A1 (Merck Sharp & Dohme, published 2024):
Substitutions are numbered along the chain they refer to. Blank lines part the entries; values can stand above or below the binder they belong to.

Tests used:
[1] = target: T1, cynomolgus CEACAM5 on Ba/F3 cells (cynomolgus monkey); assay: flow cytometry on Ba/F3 cells expressing cynomolgus CEACAM5, fold over background (FOB), 5-fold dilutions from 1600 nM
T1 construct: whole, on cells
Procedure: To examine the binding specificity of the TriNKETs to CEACAM5 compared to other CEACAM family members, Ba/F3 cells were engineered to express one of human CEACAM1, CEACAM6, CEACAM8, or cynomolgus CEACAM5. CEACAM5 TriNKETs were evaluated by flow cytometry starting at 1600 nM followed by 7 5-fold dilutions.

CEACAM5 A1-B1-Fc = target: T2, CEACAM5 A1-B1-Fc (human, UniProt P06731 145-322, limits assumed); assay: SPR, Fab capt, 25C
T2 construct: also called A1-B1 domain
T2 sequence: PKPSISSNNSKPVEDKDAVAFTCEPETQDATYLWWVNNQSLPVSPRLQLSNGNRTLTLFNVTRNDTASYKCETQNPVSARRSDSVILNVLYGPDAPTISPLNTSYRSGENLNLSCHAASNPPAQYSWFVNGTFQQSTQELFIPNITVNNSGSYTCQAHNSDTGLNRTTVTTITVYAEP
Procedure: If the protein domain was an Fc fusion, AB0411, AB0466, AB0264, or AB0621 were captured using an anti-human Fab antibody (Cytiva, #28958325) immobilized onto a CM5 chip. The various hCEACAM5 protein domains (N-term, A1-B1, A2, B2, A3, or B3) were titrated over the captured TriNKETs at 50 μL/min for 180 sec of association and 300 sec of dissociation. The assay was run at 25° C. in HBS-EP+ running buffer, pH 7.4. The surface of the CM5 chip was regenerated using […] glycine pH 2.1.

Human CEACAM1 = target: T3, Human CEACAM1 (human, UniProt P13688 35-428, limits assumed); assay: SPR, 37C, pH 7.4
T3 sequence (looked up): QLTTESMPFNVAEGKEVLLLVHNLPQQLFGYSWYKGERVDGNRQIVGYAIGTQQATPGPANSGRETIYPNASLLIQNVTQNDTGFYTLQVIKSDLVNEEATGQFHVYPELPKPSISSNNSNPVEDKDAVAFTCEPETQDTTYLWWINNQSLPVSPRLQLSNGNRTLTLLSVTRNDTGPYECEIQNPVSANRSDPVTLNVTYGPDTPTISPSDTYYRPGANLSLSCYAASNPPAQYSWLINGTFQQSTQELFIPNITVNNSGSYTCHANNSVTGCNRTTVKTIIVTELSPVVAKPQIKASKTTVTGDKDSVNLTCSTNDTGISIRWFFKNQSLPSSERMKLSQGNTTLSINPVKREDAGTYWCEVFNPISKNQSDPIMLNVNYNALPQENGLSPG
Procedure: To determine the affinity and cross-reactivity of CEACAM5 TriNKET molecules, AB0411, AB0466, or AB0621 TriNKETs were captured using an anti-human Fc capture antibody (Cytiva, #BR100839) immobilized onto a Biacore CM5 standard surface sensor chip following manufacturer instructions. Human or cynomolgus CEACAM5 were titrated over captured AB0411, AB0466, and AB0621 as 2-fold serial dilutions starting from 300 nM. Association was monitored for 300 sec and dissociation was monitored for 600 sec. The assay was run at 37° C. at pH 7.4 and 6.0. The surface of the CM5 chip was regenerated with 10 mM glycine pH 1.5 for 20 sec at 100 μL/min.
Binding to human and cynomolgus CEACAM1, 6, and 8 was assessed by SPR using the same protocol as for CEACAM5 but using up to 600 and 1200 nM for titration of each protein. There were no detectable binding signals at these concentrations for AB0621. In contrast, reproducible weak binding signals were detected for AB0411 and AB0466, but these two TriNKETs also bound to different epitope(s) on the N-terminus of CEACAM5. Typical weak binding sensorgrams for AB0411 and AB0466 against human CEACAM1 and 6 indicated weak but notable signals compared to AB0621. […]

human CEACAM5 on cells [2] = target: T4, human CEACAM5 on cells (human, UniProt P06731 35-685); assay: flow cytometry, LoVo cells
T4 construct: tumour cell lines with endogenous CEACAM5, or B16F10 engineered to express hCEACAM5; also called CEACAM5 on MKN-45, HPAF-II, SK-CO-1, LoVo, BxPC-3, Kato-III, LS-174T, ZR-75-30; hCEACAM5-B16F10
T4 sequence: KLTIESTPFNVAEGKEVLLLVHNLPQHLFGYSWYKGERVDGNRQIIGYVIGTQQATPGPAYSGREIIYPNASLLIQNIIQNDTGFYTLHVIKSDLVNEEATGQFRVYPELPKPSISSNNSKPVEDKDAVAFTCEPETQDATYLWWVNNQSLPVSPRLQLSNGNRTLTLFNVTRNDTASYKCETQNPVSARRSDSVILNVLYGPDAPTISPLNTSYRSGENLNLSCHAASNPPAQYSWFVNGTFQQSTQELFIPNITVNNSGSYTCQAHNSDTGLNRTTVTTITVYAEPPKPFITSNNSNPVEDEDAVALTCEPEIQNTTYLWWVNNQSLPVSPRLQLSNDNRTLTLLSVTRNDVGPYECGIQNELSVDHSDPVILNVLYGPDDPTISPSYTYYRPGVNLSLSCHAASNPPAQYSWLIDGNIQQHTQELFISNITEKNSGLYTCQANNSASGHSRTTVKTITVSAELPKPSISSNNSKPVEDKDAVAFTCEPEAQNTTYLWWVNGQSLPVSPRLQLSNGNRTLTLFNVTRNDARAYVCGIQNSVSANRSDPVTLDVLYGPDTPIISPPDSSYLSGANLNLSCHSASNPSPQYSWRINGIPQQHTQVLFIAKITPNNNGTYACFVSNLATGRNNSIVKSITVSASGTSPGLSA

human CEACAM5 on cells [3] = target: T4, human CEACAM5 on cells; assay: flow cytometry, MKN-45 cells

EC50 (read off the curve) [1]: ~50 nM
Kd (CEACAM5 A1-B1-Fc): 1.5 nM
kon (CEACAM5 A1-B1-Fc): 250000 M⁻¹ s⁻¹
B1: AB0621 F3' CEACAM5 TriNKET (bispecific antibody, human IgG1, kappa)
chain: DIVMTQSPDSLAVSLGERATINCKSSHSLLYGNFQNNYLAWYQQKPGQPPKLLIYWASTRESGVPDRFSGSGSGTDFTLTISSLQAEDVAVYYCQQYYSYPYTFGCGTKLEIKGGGGSGGGGSGGGGSGGGGSQVQLVQSGAEVKKPGASVKVSCKASGYTFTAYTIHWVRQAPGQCLEWMGYINPSSGYTEYNQKFKDRTTLTADTSISTAYMELSRLRSDDTAVYYCTREGGLLWFDYWGQGTLVTVSSGSDKTHTCPPCPAPELLGGPSVFLFPPKPKDTLMISRTPEVTCVVVDVSHEDPEVKFNWYVDGVEVHNAKTKPREEQYNSTYRVVSVLTVLHQDWLNGKEYKCKVSNKALPAPIEKTISKAKGQPREPRVYTLPPCRDELTKNQVSLTCLVKGFYPSDIAVEWESNGQPENNYKTTPPVLVSDGSFTLYSKLTVDKSRWQQGNVFSCSVMHEALHNHYTQKSLSLSPG
heavy: EVQLVESGGGLVKPGGSLRLSCAASGFTFSSYSMNWVRQAPGKGLEWVSSISSSSSYIYYADSVKGRFTISRDNAKNSLYLQMNSLRAEDTAVYYCARGAPIGAAAGWFDPWGQGTLVTVSSASTKGPSVFPLAPSSKSTSGGTAALGCLVKDYFPEPVTVSWNSGALTSGVHTFPAVLQSSGLYSLSSVVTVPSSSLGTQTYICNVNHKPSNTKVDKKVEPKSCDKTHTCPPCPAPELLGGPSVFLFPPKPKDTLMISRTPEVTCVVVDVSHEDPEVKFNWYVDGVEVHNAKTKPREEQYNSTYRVVSVLTVLHQDWLNGKEYKCKVSNKALPAPIEKTISKAKGQPREPQVCTLPPSRDELTENQVSLTCLVKGFYPSDIAVEWESNGQPENNYKTTPPVLDSDGSFFLYSWLTVDKSRWQQGNVFSCSVMHEALHNHYTQKSLSLSPG
light: DIQMTQSPSSVSASVGDRVTITCRASQGISSWLAWYQQKPGKAPKLLIYAASSLQSGVPSRFSGSGSGTDFTLTISSLQPEDFATYYCQQGVSFPRTFGGGTKVEIKRTVAAPSVFIFPPSDEQLKSGTASVVCLLNNFYPREAKVQWKVDNALQSGNSQESVTEQDSKDSTYSLSSTLTLSKADYEKHKVYACEVTHQGLSSPVTKSFNRGEC
binding result (Human CEACAM1): no binding (tested: up to 600 and 1200 nM)

EC50 (human CEACAM5 on cells [2]): 3.25 nM
Max FOB (human CEACAM5 on cells [2]): 19 fold over background
EC50 (human CEACAM5 on cells [3]): 9.05 nM
Max FOB (human CEACAM5 on cells [3]): 107 fold over background
B2: AB0411 F3' CEACAM5 TriNKET (bispecific antibody, human IgG1, kappa)
chain: DIQLTQSPATLSVSPGERATLSCRASQSVSSSYLAWYQQKPGQAPRLLIYGASSRATGIPDRFSGSGSGTDFTLTISRLEPEDFAVYYCQQYNNWPLTFGCGTKVEIKGGGGSGGGGSGGGGSGGGGSQVQLVQSGGGLVQPGGSLRLSCAASGFTFTSYAMSWVRQAPGKCLEWVSAISGTGDSTFYADSVKGRFTFSRDNSKNTLYLQMNSLRAEDTAVYYCAKDLGWLQYGLFDYWGQGTLVTVSSGSDKTHTCPPCPAPELLGGPSVFLFPPKPKDTLMISRTPEVTCVVVDVSHEDPEVKFNWYVDGVEVHNAKTKPREEQYNSTYRVVSVLTVLHQDWLNGKEYKCKVSNKALPAPIEKTISKAKGQPREPRVYTLPPCRDELTKNQVSLTCLVKGFYPSDIAVEWESNGQPENNYKTTPPVLVSDGSFTLYSKLTVDKSRWQQGNVFSCSVMHEALHNHYTQKSLSLSPG
heavy: B1 heavy
light: B1 light

EC50 (read off the curve) [1]: ~40 nM
Kd (CEACAM5 A1-B1-Fc): 1 nM
kon (CEACAM5 A1-B1-Fc): 260000 M⁻¹ s⁻¹
EC50 (human CEACAM5 on cells [2]): 22.1 nM
Max FOB (human CEACAM5 on cells [2]): 14 fold over background
EC50 (human CEACAM5 on cells [3]): 20.7 nM
Max FOB (human CEACAM5 on cells [3]): 60 fold over background
B3: AB0264 F3' CEACAM5 TriNKET (bispecific antibody, human IgG1, kappa)
chain: B1 chain with S210P
heavy: B1 heavy
light: B1 light
binding result (Human CEACAM1): no binding (tested: up to 600 and 1200 nM)
